Measurements from US20190330638A1 (MAYO FOUNDATION FOR MEDICAL EDUCATION AND RESEARCH, published 2019).

Target: T1, Ubiquitin-H4 fusion construct (UniProt P0CG48 1-76; P62805 1-103, limits assumed)
T1 construct: Linear fusion used as control bait for pull-down/mass spectrometry; a single ubiquitin unit is meant; also called Ub-H4; Ubquitin-H4
Test: pull-down with fusion construct, mass spectrometry

binding result: no binding
B1: serine/threonine kinase 38 (STK38) (enzyme)
chain: not shown
notes: Endogenous protein from cell lysates (pull-down/mass spectrometry, immunoprecipitation with STK38 antibody); also called NDR1
